Experimental data published in article PMC8666976.
Read-outs that look alike come from different tables or passages of the source.

Key:
human C3b (human) [1] = target: human C3b (human) (UniProt P01024); assay: ELISA; plates coated with human C3b at 15 nM overnight at 4°C in 50 mM NaHCO3 buffer pH 9.6, blocked with 4% BSA in PBS-T; serially diluted FH CCP 15–20 or CCP 18–20 samples (concentrated supernatants) incubated 1 h at 37°C; bound FH detected with goat antiserum to human FH
human C3b (human) [2] = target: human C3b (human) (UniProt P01024); assay: as above; remark: listed apart in the source

Sequence of UniProt P01024 (P01024 749-1663, chain 1 of 2): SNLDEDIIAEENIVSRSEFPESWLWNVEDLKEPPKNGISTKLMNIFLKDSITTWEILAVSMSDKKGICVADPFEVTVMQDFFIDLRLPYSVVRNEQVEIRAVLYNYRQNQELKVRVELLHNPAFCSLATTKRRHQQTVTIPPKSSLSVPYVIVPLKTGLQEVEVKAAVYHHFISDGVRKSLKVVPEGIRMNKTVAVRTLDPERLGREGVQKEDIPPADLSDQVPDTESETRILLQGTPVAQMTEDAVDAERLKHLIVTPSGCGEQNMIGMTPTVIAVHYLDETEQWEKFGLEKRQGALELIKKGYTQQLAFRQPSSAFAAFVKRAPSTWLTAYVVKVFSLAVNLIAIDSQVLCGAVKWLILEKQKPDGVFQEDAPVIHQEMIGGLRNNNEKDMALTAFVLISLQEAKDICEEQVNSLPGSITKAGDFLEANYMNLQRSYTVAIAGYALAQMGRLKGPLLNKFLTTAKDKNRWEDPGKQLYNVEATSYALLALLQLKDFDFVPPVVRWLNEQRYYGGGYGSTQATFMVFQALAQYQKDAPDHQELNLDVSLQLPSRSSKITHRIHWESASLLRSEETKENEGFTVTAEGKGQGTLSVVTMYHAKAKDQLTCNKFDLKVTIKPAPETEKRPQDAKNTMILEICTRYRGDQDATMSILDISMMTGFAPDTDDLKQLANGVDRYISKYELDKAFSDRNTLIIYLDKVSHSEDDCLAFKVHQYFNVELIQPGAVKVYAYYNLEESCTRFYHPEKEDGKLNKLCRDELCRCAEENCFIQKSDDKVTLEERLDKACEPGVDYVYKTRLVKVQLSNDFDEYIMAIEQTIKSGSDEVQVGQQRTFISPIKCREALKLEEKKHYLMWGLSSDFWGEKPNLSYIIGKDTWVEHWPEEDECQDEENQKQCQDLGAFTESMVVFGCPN
Sequence of UniProt P01024 (P01024 749-1663, chain 2 of 2): as the sequence (P01024 749-1663, chain 1 of 2) above

Question: With “Factor H CCP 15–20 fragment, variant T956M (domain or fragment)” as the substance, how does the percent decrease in C3b binding compared to WT (human C3b (human) [1]) read?
Answer: The percent decrease in C3b binding compared to WT was 30%.

Question: And the percent decrease in C3b binding compared to WT (human C3b (human) [2])?
Answer: The percent decrease in C3b binding compared to WT was 35%.
